Target: human TIM-3 protein (coated on ELISA plates) (human) (UniProt Q8TDQ0)
Assay: competition ELISA on plate-coated human TIM-3 against biotinylated WBP340-BMK8 (self-competition), detection with SA-HRP

IC50 (read off the curve): 2 nM
B1: WBP340-BMK8 (antibody, from another filing, human IgG4, V domains shown)
VH: QVQLVQSGAEVKKPGSSVKVSCKASGYTFTSYNMHWVRQAPGQGLEWMGDIYPGNGDTSYNQKFKGRVTITADKSTSTVYMELSSLRSEDTAVYYCARVGGAFPMDYWGQGTTVTVSS
VL: AIQLTQSPSSLSASVGDRVTITCRASESVEYYGTSLMQWYQQKPGKAPKLLIYAASNVESGVPSRFSGSGSGTDFTLTISSLQPEDFATYFCQQSRKDPSTFGGGTKVEIKR
